Reference: patent US20210221879A1

B1: novel monoclonal antibody PB-1 (antibody, V domains shown)
VH: EVRLQQSGPELVKPGTSVKISCKASGYSFTGYYMHWVKQSPVKSLEWIGRIIPYNGATSYNQNFKDKASLTVDKSSRTAYMDLHSLTSEDSAVYYCARSRYYGRAPYYFDYWGQGTTLTVSS
VL: DVVVTQTPLSLPVSLGDQASISCRSSQSIVHSNGNTYLEWYLQKPGQSPKLLIYKVSNRFSGVPDRISGSGSGTDFTLKISRVEAGDLGVYSCFQGSHVPFTFGSGTKLEIK
B2: novel monoclonal antibody SJ-5 (antibody, V domains shown)
VH: EVMLVESGGRLVKPGGSLKLSCAASGFTFSSYGMSWVRQTPEKRLEWVATISGGGSYTYYPDSVKGRFTISRDNVKNNLYLQMSSLRSEDTALYYCARRGAYGDYGWFAYWGQGTLVTVSA
VL: DIVLTQSPATLSVTPGDSVSLSCRASQSINNNLHWYQQKSHESPRLLIKCASQSISGIPSRFSGSGSGTDFTLSINSVETEDFGMYFCQQSNSWPLTFGAGTKLELK

Key:
[1] = biological target: BSA cross-linked with A-peak (A-peak-BSA) (bovine) (UniProt P02769); assay: SPR, Biacore T200; A-peak-BSA amine-coupled to a CM5 chip (72 RU), PB-1 at 0.1953 to 50 nM, 1:1 binding model
[2] = biological target: BSA cross-linked with A-peak (A-peak-BSA) (bovine) (UniProt P02769); assay: cross-competition ELISA: unlabeled antibody varied (0.049 to 50 µg/mL), HRP-labeled SJ-5 as competitor on immobilised A-peak-BSA, absorbance 450-650 nm
[3] = biological target: BSA modified with the novel structure derived from Glycer-AGEs (GAL13-BSA) (bovine) (UniProt P02769); assay: SPR, Biacore T200; GAL13-BSA amine-coupled to a CM5 chip
[4] = biological target: Bovine serum albumin containing AGEs derived from glyceraldehyde (Glycer-AGEs-BSA) (bovine) (UniProt P02769); assay: SPR, Biacore T200; Glycer-AGEs-BSA amine-coupled to a CM5 chip, antibody at 0 to 400 nM
[5] = biological target: BSA modified with the novel structure derived from Glycer-AGEs (GAL13-BSA) (bovine) (UniProt P02769); assay: direct ELISA: POD-labeled antibody on immobilised GAL13-BSA (1 µg/mL), absorbance at 490 nm

| Binder | Kd [1] | IC50 (read off the curve) [2] | Kd [3] | Kd [4] | EC50 (read off the curve) [5] |
| --- | --- | --- | --- | --- | --- |
| B1 | 4.15 nM | 2 µg/mL |  |  |  |
| B2 |  |  | 87.5 nM | 57.4 nM | 0.3 µg/mL |
